In patent publication US20240261333A1, “NOVEL TARGETS FOR ENHANCING ANTI-TUMOR IMMUNITY” (THE BROAD INSTITUTE, INC., priority 2021, published 2024):

T1: B3GNT2 (Homo sapiens, UniProt Q9NY97)
T1 construct: The respective ORFs of candidate genes [CD274 (NM_014143), MCL1 (NM_021960), JUNB (NM_002229), and B3GNT2 (NM_006577)] were synthesized; expressed in transfected cells; host or cells: A375 melanoma cells (lentiviral ORF overexpression)
T1 sequence (Q9NY97 1-397): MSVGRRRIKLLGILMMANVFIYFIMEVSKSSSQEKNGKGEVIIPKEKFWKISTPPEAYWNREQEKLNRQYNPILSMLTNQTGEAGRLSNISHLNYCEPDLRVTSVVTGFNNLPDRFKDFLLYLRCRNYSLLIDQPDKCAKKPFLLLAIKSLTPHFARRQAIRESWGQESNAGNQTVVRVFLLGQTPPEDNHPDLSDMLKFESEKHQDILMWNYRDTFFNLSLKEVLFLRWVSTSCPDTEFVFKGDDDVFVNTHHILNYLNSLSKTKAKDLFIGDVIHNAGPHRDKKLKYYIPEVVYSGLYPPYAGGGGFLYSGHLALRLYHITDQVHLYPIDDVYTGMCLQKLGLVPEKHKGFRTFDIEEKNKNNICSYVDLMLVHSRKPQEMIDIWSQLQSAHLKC

B1: GNAS (protein)
chain: MGVRNCLYGNNMSGQRDIPPEIGEQPEQPPLEAPGAAAPGAGPSPAEEMETEPPHNEPIPVENDGEACGPPEVSRPNFQVLNPAFREAGAHGSYSPPPEEAMPFEAEQPSLGGFWPTLEQPGFPSGVHAGLEAFGPALMEPGAFSGARPGLGGYSPPPEEAMPFEFDQPAQRGCSQLLLQVPDLAPGGPGAAGVPGAPPEEPQALRPAKAGSRGGYSPPPEETMPFELDGEGFGDDSPPPGLSRVIAQVDGSSQFAAVAASSAVRLTPAANAPPLWVPGAIGSPSQEAVRPPSNFTGSSPWMEISGPPFEIGSAPAGVDDTPVNMDSPPIALDGPPIKVSGAPDKRERAERPPVEEEAAEMEGAADAAEGGKVPSPGYGSPAAGAASADTAARAAPAAPADPDSGATPEDPDSGTAPADPDSGAFAADPDSGAAPAAPADPDSGAAPDAPADPDSGAAPDAPADPDAGAAPEAPAAPAAAETRAAHVAPAAPDAGAPTAPAASATRAAQVRRAASAAPASGARRKIHLRPPSPEIQAADPPTPRPTRASAWRGKSESSRGRRVYYDEGVASSDDDSSGDESDDGTSGCLRWFQHRRNRRRRKPQRNLLRNFLVQAFGGCFGRSESPQPKASRSLKVKKVPLAEKRRQMRKEALEKRAQKRAEKKRSKLIDKQLQDEKMGYMCTHRLLLLGAGESGKSTIVKQMRILHVNGFNGEGGEEDPQAARSNSDGEKATKVQDIKNNLKEAIETIVAAMSNLVPPVELANPENQFRVDYILSVMNVPDFDFPPEFYEHAKALWEDEGVRACYERSNEYQLIDCAQYFLDKIDVIKQADYVPSDQDLLRCRVLTSGIFETKFQVDKVNFHMFDVGGQRDERRKWIQCFNDVTAIIFVVASSSYNMVIREDNQTNRLQEALNLFKSIWNNRWLRTISVILFLNKQDLLAEKVLAGKSKIEDYFPEFARYTTPEDATPEPGEDPRVTRAKYFIRDEFLRISTASGDGRHYCYPHFTCAVDTENIRRVFNDCRDIIQRMHLRQYELL
B2: LOXL4 (protein)
chain: QSLGTTKLRLVGPESKPEEGRLEVLHQGQWGTVCDDNFAIQEATVACRQLGFEAALTWAHSAKYGQGEGPIWLDNVRCVGTESSLDQCGSNGWGVSDCSHSEDVGVICHPRRHRGYLSETVSNALGPQGRRLEEVRLKPILASAKQHSPVTEGAVEVKYEGHWRQVCDQGWTMNNSRVVCGMLGFPSEVPVDSHYYRKVWDLKMRDPKSRLKSLTNKNSFWIHQVTCLGTEPHMANCQVQVAPARGKLRPACPGGMHAVVSCVAGPHFRPPKTKPQRKGSWAEEPRVRLRSGAQVGEGRVEVLMNRQWGTVCDHRWNLISASVVCRQLGFGSAREALFGARLGQGLGPIHLSEVRCRGYERTLSDCPALEGSQNGCQHENDAAVRCNVPNMGFQNQVRLAGGRIPEEGLLEVQVEVNGVPRWGSVCSENWGLTEAMVACRQLGLGFAIHAYKETWFWSGTPRAQEVVMSGVRCSGTELALQQCQRHGPVHCSHGGGRFLAGVSCMDSAPDLVMNAQLVQETAYLEDRPLSQLYCAHEENCLSKSADHMDWPYGYRRLLRFSTQIYNLGRTDFRPKTGRDSWVWHQCHRHYHSIEVFTHYDLLTLNGSKVAEGHKASFCLEDTNCPTGLQRRYACANFGEQGVTVGCWDTYRHDIDCQWVDITDVGPGNYIFQVIVNPHYEVAESDFSNNMLQCRCKYDGHRVWLHNCHTGNSYPANAELSLEQEQRLRNNLI
B3: SLC25A3 (protein)
chain: AVEEQYSCDYGSGRFFILCGLGGIISCGTTHTALVPLDLVKCRMQVDPQKYKGIFNGFSVTLKEDGVRGLAKGWAPTFLGYSMQGLCKFGFYEVFKVLYSNMLGEENTYLWRTSLYLAASASAEFFADIALAPMEAAKVRIQTQPGYANTLRDAAPKMYKEEGLKAFYKGVAPLWMRQIPYTMMKFACFERTVEALYKFVVPKPRSECSKPEQLVVTFVAGYIAGVFCAIVSHPADSVVSVLNKEKGSSASLVLKRLGFKGVWKGLFARIIMIGTLTALQWFIYDSVKVYFRLPRPPPPEMPESLKKKLGLTQ
B4: HSPH1 (protein)
chain: SVVGLDVGSQSCYIAVARAGGIETIANEFSDRCTPSVISFGSKNRTIGVAAKNQQITHANNTVSNFKRFHGRAFNDPFIQKEKENLSYDLVPLKNGGVGIKVMYMGEEHLFSVEQITAMLLTKLKETAENSLKKPVTDCVISVPSFFTDAERRSVLDAAQIVGLNCLRLMNDMTAVALNYGIYKQDLPSLDEKPRIVVFVDMGHSAFQVSACAFNKGKLKVLGTAFDPFLGGKNFDEKLVEHFCAEFKTKYKLDAKSKIRALLRLYQECEKLKKLMSSNSTDLPLNIECFMNDKDVSGKMNRSQFEELCAELLQKIEVPLYSLLEQTHLKVEDVSAVEIVGGATRIPAVKERIAKFFGKDISTTLNADEAVARGCALQCAILSPAFKVREFSVTDAVPFPISLIWNHDSEDTEGVHEVFSRNHAAPFSKVLTFLRRGPFELEAFYSDPQGVPYPEAKIGRFVVQNVSAQKDGEKSRVKVKVRVNTHGIFTISTASMVEKVPTEENEMSSEADMECLNQRPPENPDTDANEKKVDQPPEAKKPKIKVVNVELPIEANLVWQLGKDLLNMYIETEGKMIMQDKLEKERNDAKNAVEEYVYEFRDKLCGPYEKFICEQDHQNFLRLLTETEDWLYEEGEDQAKQAYVDKLEELMKIGTPVKVRFQEAEERPKMFEELGQRLQHYAKIAADFRNKDEKYNHIDESEMKKVEKSVNEVMEWMNNVMNAQAKKSLDQDPVVRAQEIKTKIKELNNTCEPVVTQPKPKIESPKLERTPNGPNIDKKEEDLEDKNNFGAEPPHQNGECYPNEKNSVNMDLD
B5: TRIM28 (protein)
chain: AASAAAASAAAASAASGSPGPGEGSAGGEKRSTAPSAAASASASAAASSPAGGGAEALELLEHCGVCRERLRPEREPRLLPCLHSACSACLGPAAPAAANSSGDGGAAGDGTVVDCPVCKQQCFSKDIVENYFMRDSGSKAATDAQDANQCCTSCEDNAPATSYCVECSEPLCETCVEAHQRVKYTKDHTVRSTGPAKSRDGERTVYCNVHKHEPLVLFCESCDTLTCRDCQLNAHKDHQYQFLEDAVRNQRKLLASLVKRLGDKHATLQKSTKEVRSSIRQVSDVQKRVQVDVKMAILQIMKELNKRGRVLVNDAQKVTEGQQERLERQHWTMTKIQKHQEHILRFASWALESDNNTALLLSKKLIYFQLHRALKMIVDPVEPHGEMKFQWDLNAWTKSAEAFGKIVAERPGTNSTGPAPMAPPRAPGPLSKQGSGSSQPMEVQEGYGFGSGDDPYSSAEPHVSGVKRSRSGEGEVSGLMRKVPRVSLERLDLDLTADSQPPVFKVFPGSTTEDYNLIVIERGAAAAATGQPGTAPAGTPGAPPLAGMAIVKEEETEAAIGAPPTATEGPETKPVLMALAEGPGAEGPRLASPSGSTSSGLEVVAPEGTSAPGGGPGTLDDSATICRVCQKPGDLVMCNQCEFCFHLDCHLPALQDVPGEEWSCSLCHVLPDLKEEDGSLSLDGADSTGVVAKLSPANQRKCERVLLALFCHEPCRPLHQLATDSTFSLDQPGGTLDLTLIRARLQEKLSPPYSSPQEFAQDVGRMFKQFNKLTEDKADVQSIIGLQRFFETRMNEAFGDTKFSAVLVEPPPMSLPGAGLSSQELSGGPGDGP
B6: SERPINE2 (protein)
chain: SHFNPLSLEELGSNTGIQVFNQIVKSRPHDNIVISPHGIASVLGMLQLGADGRTKKQLAMVMRYGVNGVGKILKKINKAIVSKKNKDIVTVANAVFVKNASEIEVPFVTRNKDVFQCEVRNVNFEDPASACDSINAWVKNETRDMIDNLLSPDLIDGVLTRLVLVNAVYFKGLWKSRFQPENTKKRTFVAADGKSYQVPMLAQLSVFRCGSTSAPNDLWYNFIELPYHGESISMLIALPTESSTPLSAIIPHISTKTIDSWMSIMVPKRVQVILPKFTAVAQTDLKEPLKVLGITDMFDSSKANFAKITTGSENLHVSHILQKAKIEVSEDGTKASAATTAILIARSSPPWFIVDRPFLFFIRHNPTGAVLFMGQINKP
B7: OS9 (protein)
chain: GGVGSLNLEELSEMRYGIEILPLPVMGGQSQSSDVVIVSSKYKQRYECRLPAGAIHFQREREEETPAYQGPGIPELLSPMRDAPCLLKTKDWWTYEFCYGRHIQQYHMEDSEIKGEVLYLGYYQSAFDWDDETAKASKQHRLKRYHSQTYGNGSKCDLNGRPREAEVRFLCDEGAGISGDYIDRVDEPLSCSYVLTIRTPRLCPHPLLRPPPSAAPQAILCHPSLQPEEYMAYVQRQADSKQYGDKIIEELQDLGPQVWSETKSGVAPQKMAGASPTKDDSKDSDFWKMLNEPEDQAPGGEEVPAEEQDPSPEAADSASGAPNDFQNNVQVKVIRSPADLIRFIEELKGGTKKGKPNIGQEQPVDDAAEVPQREPEKERGDPERQREMEEEEDEDEDEDEDEDERQLLGEFEKELEGILLPSDRDRLRSETEKELDPDGLKKESERDRAMLALTSTLNKLIKRLEEKQSPELVKKHKKKRVVPKKPPPSPQPTEEDPEHRVRVRVTKLRLGGPNQDLTVLEMKRENPQLKQIEGLVKELLEREGLTAAGKIEIKIVRPWAEGTEEGARWLTDEDTRNLKEIFFNILVPGAEEAQKERQRQKELESNYRRVWGSPGGEGTGDLDEFDF

biological target: T1, B3GNT2; assay: Co-IP of FLAG-tagged B3GNT2 followed by mass spectrometry; assay type: cell-based; parameters: C-term IgG / C-term flag: unit not given here; conditions: Co-IP with FLAG antibody, C-terminally FLAG-tagged B3GNT2; mass spectrometry count, unit not given
How it was run: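 Co-purifying proteins were identified by fractionated nano-LC–MS/MS on an Orbitrap Elite, run data-dependent. Beforehand, lysates in 1% Triton X-100/HEPES buffer were incubated overnight at 4° C with anti-FLAG or […] and pulled down on Protein A/G magnetic beads for 4 h. Duplicate biological replicates.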

| C-term flag | Molecule |
| --- | --- |
| 2 | B1 |
| 8 | B2 |
| 9 | B3 |
| 7 | B4 |
| 8 | B5 |
| 11 | B6 |
| 9 | B7 |

same assay, conditions: Co-IP with FLAG antibody, N-terminally FLAG-tagged B3GNT2; mass spectrometry count, unit not given

| N-term FLAG | Molecule |
| --- | --- |
| 0 | B1 |
| 5 | B2 |
| 4 | B3 |
| 8 | B4 |
| 4 | B5 |
| 4 | B6 |
| 3 | B7 |

same assay, conditions: Co-IP with IgG control antibody, C-terminally FLAG-tagged B3GNT2; mass spectrometry count, unit not given

| C-term IgG | Molecule |
| --- | --- |
| 0 | B1 |
| 0 | B2 |
| 0 | B3 |
| 0 | B4 |
| 0 | B5 |
| 0 | B6 |
| 0 | B7 |

same assay, conditions: Co-IP with IgG control antibody, N-terminally FLAG-tagged B3GNT2; mass spectrometry count, unit not given

| N-term IgG | Molecule |
| --- | --- |
| 0 | B1 |
| 0 | B2 |
| 0 | B3 |
| 0 | B4 |
| 0 | B5 |
| 0 | B6 |
| 0 | B7 |
